Series [1] concerns the target T1, Pif1p (nuclear isoform) (Saccharomyces cerevisiae, UniProt P07271 40-859).
T1 sequence: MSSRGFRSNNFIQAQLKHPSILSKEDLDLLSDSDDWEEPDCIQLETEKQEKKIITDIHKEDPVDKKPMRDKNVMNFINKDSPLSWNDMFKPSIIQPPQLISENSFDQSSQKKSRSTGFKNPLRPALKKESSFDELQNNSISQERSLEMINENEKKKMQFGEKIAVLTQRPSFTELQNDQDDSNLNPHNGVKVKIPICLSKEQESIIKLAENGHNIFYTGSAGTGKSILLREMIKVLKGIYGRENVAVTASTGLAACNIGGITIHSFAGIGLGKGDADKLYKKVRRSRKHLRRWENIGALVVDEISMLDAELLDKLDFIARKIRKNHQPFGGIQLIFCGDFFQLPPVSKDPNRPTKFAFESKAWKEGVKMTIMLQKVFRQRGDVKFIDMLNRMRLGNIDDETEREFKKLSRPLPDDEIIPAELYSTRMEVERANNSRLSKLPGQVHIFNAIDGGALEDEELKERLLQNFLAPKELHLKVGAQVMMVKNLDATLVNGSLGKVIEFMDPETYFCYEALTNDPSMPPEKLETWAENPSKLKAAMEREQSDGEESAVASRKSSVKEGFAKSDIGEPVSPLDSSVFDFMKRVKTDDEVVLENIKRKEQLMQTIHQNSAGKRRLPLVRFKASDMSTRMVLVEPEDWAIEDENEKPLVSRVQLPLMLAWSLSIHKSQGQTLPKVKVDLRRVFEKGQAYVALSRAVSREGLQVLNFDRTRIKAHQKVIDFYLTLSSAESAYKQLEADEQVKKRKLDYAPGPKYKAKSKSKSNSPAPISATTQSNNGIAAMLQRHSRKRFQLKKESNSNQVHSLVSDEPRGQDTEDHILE
Kind of series: EMSA. In general terms: Mobility shift assays separate free from complexed probe on a gel.

Series [2] concerns the target T1, Pif1p (nuclear isoform). The experiment in a line: EMSA. The source holds these as a separate data set.

Where two headings read alike, the source gives them in different places.

B1: D20 (dsDNA)
DNA 1: CGCCATGGTGATCCGAGTGC
DNA 2: CACTGGCCGTCTTACGGTCGGCACTCGGATCACCATGGCG
Broadly, the Kd is the equilibrium constant for the complex coming apart. Read a low Kd as higher affinity. Molecule B1 gave a Kd in series [1] of 100 nM.

B2: fR20 (DNA:RNA)
RNA: CGCCAUGGUGAUCCGAGUGCAAAAAAAAAA
DNA: B1 DNA 2
modifications: top strand RNA, bottom strand DNA
In series [1], B2 showed a Kd of 52 nM.

B3: R20 (DNA:RNA)
RNA: CGCCAUGGUGAUCCGAGUGC
DNA: B1 DNA 2
modifications: top strand RNA, bottom strand DNA
With B3, the Kd in series [1] is 17 nM.

B4: fD20 (dsDNA)
DNA 1: CGCCATGGTGATCCGAGTGCAAAAAAAAAA
DNA 2: B1 DNA 2
Regarding B4, the Kd in series [2] stood at 320 nM; in series [1], 130 nM.

(Values after paper PMC2034482.)
